Source: US20070020252A1, “Modified protease inhibitors” (priority 2003, published 2007)
Values belong to the molecule of their own block, whether it stands above or below them. Where no end group is shown, it is not given here.

Legend:
[1] = Pharmacokinetic study in mice: plasma clearance of 125I-labeled protein, SEC of plasma; assay type: in vivo; conditions: for α Phase Clearance (%) / α Phase Half-life / β Phase Clearance (%) / β Phase Half-life (hr) / β Phase Half-life (min): tail vein injection, bi-exponential fit; for α half life: Table 4 summary
Description: The pharmacokinetics of DX-890 and the PEGylated DX-890 compounds were measured by iodinating the proteins on available tyrosine residues and measuring their clearance in mice.
Samples were radio-iodinated by the indirect method using the IODO-GEN reagent (method from Pierce Chem. Co., and first described by Chizzonite [J Immunol 147, 1548-1556, 1991; J. Immunol 148, 3117-3124, 1992]). Samples were incubated with the ^125I-NaI solution for 9 min at which time tyrosine (10 mg/mL, a saturated solution) was added to quench the reaction. After about 15 min a 5 μl aliquot was removed as a standard for counting.
For each labeling reaction, the ^125I-labeled material (approx. 0.6 mL) was purified using a single 5 mL D-salt 1800 polyacrylamide column (Pierce Chem. Co.). […] Samples were applied in and columns were eluted with a series of 0.3 mL aliquots. Recovery of applied activity in all protein fractions was >75% and the total recovery of applied activity was >90%. The fractions containing peak levels of labeled protein were pooled for animal injections. To prepare the injectate, the pool was diluted with Tris buffer (pH 7.5) so that the 100 μL injection volume contained about 10 μg of labeled material.
Time of injection and time of sampling were recorded. At sacrifice, samples of 0.5 ml were collected into anticoagulant (0.02 ml EDTA). Cells were spun down and separated from plasma, and cells were stored at −20° C. Plasma was divided into two aliquots, one frozen and one stored at 4° C. for immediate analysis. Analysis included gamma counting of all samples. In addition, analysis was performed for two plasma samples (N=2) at each time point, i.e., 0, and 30 minutes, for ^125I-DX-890, and 0, 30 minutes, and 24 h for the ^125I-DX-890-PEG conjugates. A SEC-HPLC Superose-12 column was used with an in-line radiation detector (FIGS. 4-7).
The solid curves through the sets of data plotted in FIG. 3 are four-parameter, least-squares fits of Equation 3 to the data. Table 3 presents the values for % α Phase, α Phase Half-life, % β Phase, and β Phase Half-life extracted from the least squares fits to the in vivo clearance data set obtained for each of the four compounds tested in mice.

[2] = target: T1, human neutrophil elastase (HNE) (Homo sapiens, UniProt P08246); assay: Ki measurement: tight-binding inhibition of HNE, fluorogenic substrate hydrolysis; assay type: biochemical
T1 sequence (P08246 30-267): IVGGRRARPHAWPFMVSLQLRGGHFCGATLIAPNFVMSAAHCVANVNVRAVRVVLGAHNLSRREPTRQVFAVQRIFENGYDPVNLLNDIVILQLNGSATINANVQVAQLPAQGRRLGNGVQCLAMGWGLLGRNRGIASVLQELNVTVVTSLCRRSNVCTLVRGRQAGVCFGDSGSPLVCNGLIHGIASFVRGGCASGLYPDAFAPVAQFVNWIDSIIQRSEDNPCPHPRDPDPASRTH
Description: (§1) Equilibrium inhibition constants for the PEGylated DX-890 samples were determined according to the tight-binding inhibition model with formation of a reversible complex (1:1 stoichiometry). Reactions were set up with 100 pM enzyme and a range of inhibitor concentrations (0-4 nM) at 30° C. in 50 mM HEPES, pH 7.5, 150 mM NaCl, and 0.1% Triton X-100. Following a 24 h incubation, substrate was added (25 μM) to the enzyme-inhibitor solution and the rate of substrate hydrolysis monitored at an excitation of 360 nm and an emission of 460 nm. Plots of the percent remaining activity versus active inhibitor concentration were fit by nonlinear regression analysis to Equation 1 to determine equilibrium dissociation constants. Both the Dyax DX-890 reference lot 00B16 and the DX-890 used for PEGylations, NBG2016/9 were analyzed for comparison. [formula] Where: • % A=percent activity • I=DX-890 • E=HNE concentration • Ki=equilibrium inhibition constant

[3] = Pharmacokinetic study in rabbits: plasma clearance of 125I-labeled protein, SEC of plasma; assay type: in vivo, New Zealand White rabbits
Description: Pharmacokinetic properties of DX-890 and PEG-30-DX-890 (conjugation at pH 7.4) were measured by iodinating the proteins and measuring clearance of the radiolabel from circulation in rabbits. The two DX-890 preparations were iodinated with iodine-125 using the iodogen method. After radiolabeling, the two labeled protein preparations were purified from unbound label by size exclusion chromatography (SEC). Fractions from the SEC column having the highest radioactivity were pooled. The purified, radiolabeled preparations were characterized for specific activity by gamma counting and for purity by SEC using a Superose-12 column equipped with an in-line radiation detector.
New Zealand White rabbits (ca. 2.5 Kg) were used for clearance measurements, with one animal used for each of the two labeled protein preparations. The radiolabeled preparation was injected into the animal via an ear vein. One blood sample was collected per animal per time point with early time points at approximately 0, 2.5, 5, 7, 15, 30, 60, and 90 minutes post injection and later time points at 4, 8, 16, 24, 30, 48, 72, 96, 144, 168, and 192 hours post injection. Samples (about 0.5 mL) were collected into anticoagulant (EDTA) containing tubes. Cells were separated from the plasma fraction by centrifugation. The plasma fraction was divided into two aliquots. One plasma aliquot was stored at −70° C. and the other aliquot was kept at 4° C. for immediate analyse's. Sample analyses included radiation counting for clearance rate determinations and SEC chromatography to test for changes in the size distribution of radiolabeled material in vivo (stability).

[4] = target: T2, human neutrophil elastase (human, UniProt P08246 30-247); assay: enzyme inhibition, tight-binding model; 100 pM hNE (summary table, repeats Table 3)
T2 construct: also called hNE; HNE
T2 sequence (looked up): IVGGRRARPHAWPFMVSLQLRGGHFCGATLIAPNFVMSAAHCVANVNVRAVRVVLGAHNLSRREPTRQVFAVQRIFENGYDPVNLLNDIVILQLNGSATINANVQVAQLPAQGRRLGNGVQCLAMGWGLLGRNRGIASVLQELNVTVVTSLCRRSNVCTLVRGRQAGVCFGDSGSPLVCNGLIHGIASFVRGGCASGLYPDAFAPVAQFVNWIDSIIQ
Description: as §1, with “comparison.” for “comparison. [formula] Where: • % A=percent activity • I=DX-890 • E=HNE concentration • Ki=equilibrium inhibition constant”

[5] = target: T2, human neutrophil elastase; assay: enzyme inhibition, tight-binding model; 100 pM hNE, 0-4 nM inhibitor, 24 h incubation at 30 C, fluorogenic substrate
Description: as §1, with “comparison.” for “comparison. [formula] Where: • % A=percent activity • I=DX-890 • E=HNE concentration • Ki=equilibrium inhibition constant”

[6] = target: T2, human neutrophil elastase; assay: enzyme inhibition, tight-binding model; 100 pM hNE; reference native DX-890
Description: as §1, with “comparison.” for “comparison. [formula] Where: • % A=percent activity • I=DX-890 • E=HNE concentration • Ki=equilibrium inhibition constant”

[7] = ear vein injection, bi-exponential fit

Molecule: PEG20-DX-890-7.4: DX-890 conjugated to a 20 kDa PEG moiety (MPEG-SPA20K, conjugated at pH 7.4), mono-PEGylated (EACNLPIVRGPCIAFFPRWAFDAVKGKCVLFPYGGCQGNGNKFYSEKECREYCGVP)
α Phase Clearance (%) [1]: 58% | α Phase Half-life [1]: 0.417 h | β Phase Clearance (%) [1]: 42% | β Phase Half-life (hr) [1]: 5.1 h | β Phase Half-life (min) [1]: 307 min

Ki relative to native DX-890 [2]: twice
Molecule: PEG30-DX-890-7.4: DX-890 conjugated to a 30 kDa PEG moiety (MPEG-SPA30K, conjugated at pH 7.4), mono-PEGylated (EACNLPIVRGPCIAFFPRWAFDAVKGKCVLFPYGGCQGNGNKFYSEKECREYCGVP; not fully specified)
fraction of total material in the slow clearance portion relative to unmodified DX-890 [3]: nearly doubles | in vivo half-life [3]: about 3 days | increase of T1/2β versus unmodified protein [3]: about 25 fold | time label remains stably associated with injectate peaks ([3]; SEC analysis of plasma samples): at least 72 hours | % α [3, 7]: 55% | % β [3, 7]: 45% | T1/2α [3, 7]: 2.73 h | T1/2β [3, 7]: 69.23 h | relative levels of circulating radiolabel versus unmodified protein ([3]; one day post injection): more than 100 fold

Molecule: PEG20-DX-890-6.0: DX-890 conjugated to a 20 kDa PEG moiety (MPEG-SPA20K, conjugated at pH 6), mono-PEGylated (EACNLPIVRGPCIAFFPRWAFDAVKGKCVLFPYGGCQGNGNKFYSEKECREYCGVP)
α half life [1]: 0.25 h | α Phase Clearance (%) [1]: 53% | α Phase Half-life [1]: 0.278 h | β Phase Clearance (%) [1]: 47% | β Phase Half-life (hr) [1]: 4.9 h | β Phase Half-life (min) [1]: 296 min

Molecule: PEG30-DX-890-6.0: DX-890 conjugated to a 30 kDa PEG moiety (MPEG-SPA30K, conjugated at pH 6), mono-PEGylated (EACNLPIVRGPCIAFFPRWAFDAVKGKCVLFPYGGCQGNGNKFYSEKECREYCGVP)
β phase half life [1]: about 8 hr | α half life [1]: 0.317 h | α Phase Clearance (%) [1]: 33% | α Phase Half-life [1]: 0.32 h | β Phase Clearance (%) [1]: 67% | β Phase Half-life (hr) [1]: 8.4 h | β Phase Half-life (min) [1]: 505 min

Ki [4]: 7 pM | Ki [5]: 7 pM
B1: DX-890 (designed binder)
chain: EACNLPIVRGPCIAFFPRWAFDAVKGKCVLFPYGGCQGNGNKFYSEKECREYCGVP
modifications: disulfide (positions not given here); also: three intramolecular disulfides, pairing not given here
notes: 56 aa, three intramolecular disulfides; also called EPI-hNE4; Native DX-890

Ki [4]: 8 pM | Ki [5]: 8 pM
B2: DX-890 conjugated to a 30 kDa PEG moiety (conjugated at pH 6) (designed binder)
chain: B1 chain
modifications: single 30 kDa mPEG (MPEG-SPA30K) attached, mono-PEGylated; reaction at pH 6.0, headed 'N-Terminal-Site Modification'
notes: also called PEG30-DX-890-6.0; +30K PEG, pH 6

fold Ki relative to native DX-890 [6]: 2 fold | Ki [4]: 16 pM | Ki [5]: 16 pM
B3: DX-890 conjugated to a 30 kDa PEG moiety (conjugated at pH 7.4) (designed binder)
chain: B1 chain
modifications: single 30 kDa mPEG (MPEG-SPA30K) attached, mono-PEGylated; reaction at pH 7.4, headed 'Random-Site Modification' (site not determined)
notes: also called PEG30-DX-890-7.4; +30K PEG, pH 7.4

Ki [4]: 8 pM | Ki [5]: 8 pM
B4: DX-890 conjugated to a 20 kDa PEG moiety (conjugated at pH 7.4) (designed binder)
chain: B1 chain
modifications: single 20 kDa mPEG (MPEG-SPA20K) attached, mono-PEGylated; reaction at pH 7.4, headed 'Random-Site Modification' (site not determined)
notes: also called PEG20-DX-890-7.4; +20K PEG, pH 7.4

Ki [4]: 7 pM | Ki [5]: 7 pM
B5: DX-890 conjugated to a 20 kDa PEG moiety (conjugated at pH 6) (designed binder)
chain: B1 chain
modifications: single 20 kDa mPEG (MPEG-SPA20K) attached, mono-PEGylated; reaction at pH 6.0, headed 'N-Terminal-Site Modification'
notes: also called PEG20-DX-890-6.0; +20K PEG, pH 6
